Experimental data taken from the nanobody polyreactivity screen of Harvey et al. (2022).

Assay: yeast display, Sf9 membrane polyspecificity reagent, FACS + sequencing; frameworks hold sequencing errors
Method in brief: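 A nanobody's polyreactivity label depends on the gate it was sorted from. Yeast display cells were stained with 10% biotinylated, detergent-solubilized Sf9 membrane reagent for 1 hour at 4 °C, enriched on streptavidin microbeads and sorted by FACS. The low and high (top ~1%) gates were set on anti-HA fluorescence for expression and streptavidin fluorescence for reagent binding.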

## QVQLVESGGGLVQAGGSLRLSCAASGFTFIKYAMGWYRQAPGKEREFVSTISWNGGNTYYADSVKGRFTISRDNAKNTVYLQINSLKPEDTAVYYGAARVKYRTRGGTVVSYDYWGQGTQVTVSS
  polyreactivity (PSR sort gate): high polyreactivity

## QVQLVESGGGLVQAGGSLRLSCAASGFTFINYAMGWYRQAPGKERELVAAISSSSDRTYDADSVKGRFTISRDNAKNTVYLQMNSLKPEDTAVYYCAAYAQKRYYWGQGTQVNVSS
  polyreactivity (PSR sort gate): high polyreactivity

## QVQLVESGGGLVQAGGSLRLSCAASGFTFIRYAMGWYRQAPGKERELVAAIRGTGTSTYYADSVKGRFTISRDNAKNTVYLQMNSLKPEDTAVYYCNKVAGRSPYTRYDYWGQGTQVTVSS
  polyreactivity (PSR sort gate): low polyreactivity

## QVQLVESGGGLVQAGGSLRLSCAASGFTFISNAMGWYRQAPGKERELVAAISSSGGRTYYADSVKGRFTSSRDNAKNTVYLQMNSLKPEDTAVYYCNADRSLLYSRKIEYDYWGQGTQVSVSS
  polyreactivity (PSR sort gate): low polyreactivity

## QVQLVESGGGLVQAGGSLRLSCAASGFTFITNAMGWYRQAPGKERELVAAISSSGGRTYYADSVKGRFTISRDNAKNTVYLQMNSLKPEDTAVYYCNADRSLLYSRKIEYDYWGQGTQVTVSS
  polyreactivity (PSR sort gate): low polyreactivity

## QVQLVESGGGLVQAGGSLRLSCAASGFTFIYAMGWYRQAPGTERELVAAITRSGGSTYYADSVKGRFTISRDNAKNTVYLQMNSLKPEDTAVYYCAAEAVIYYSSYFEYYYWGQGTQVTVSS
  polyreactivity (PSR sort gate): high polyreactivity

## QVQLVESGGGLVQAGGSLRLSCAASGFTFIYYAMGWYRQAPGKERELVAAIRWSGGSTYYADSVKGRFTISRDNAKNTVYLQMNSLKPEDTAVYYCAARAIYKSKYDYWGQGTQVTVSS
  polyreactivity (PSR sort gate): high polyreactivity

## QVQLVESGGGLVQAGGSLRLSCAASGFTFKAYAMGWYRQAPGKERELVAAITYSGGSTYYADSVKGRFTISRDNAKNTVYLQMNSLKPEDTAVYYCNADSDLDLYWKMDYWGQGTQVTVSS
  polyreactivity (PSR sort gate): low polyreactivity

## QVQLVESGGGLVQAGGSLRLSCAASGFTFKFYAMGWYRQAPGKEMEFVAAISGSGGSTYYADSVKRRFTISRDNAKNTVYLQMNSLKPEDTAVYYCAAEVPGKPYRRSRYSFRHDYWGQGTQVTVSS
  polyreactivity (PSR sort gate): low polyreactivity

## QVQLVESGGGLVQAGGSLRLSCAASGFTFKGNTMGWYRQAPGKERELVATITRGGTTYYADSVKGRFTISRDNAKNTVYLQMNSLKPEDTSVYYCAAVVYRPYRWQYDYWGQGTQVTVSS
  polyreactivity (PSR sort gate): high polyreactivity

## QVQLVESGGGLVQAGGSLRLSCAASGFTFKHYAMGWYRQAPGKEREFVAAITGSGGSTYYADSVKGRFTISRDNAKITVYLEMNSLKPEDTAVYYCAASDVSRYRPYRRFDYWGQGTQVTVSS
  polyreactivity (PSR sort gate): high polyreactivity

## QVQLVESGGGLVQAGGSLRLSCAASGFTFKKNAMGWYRQAPGKERELVDAISISGGSTYYADSVKGRFTISRDNAKNTVYLQMNSLKPEDTAVYYCAAVYISRNFFGRARGDYWGQGTQVTVSS
  polyreactivity (PSR sort gate): low polyreactivity

## QVQLVESGGGLVQAGGSLRLSCAASGFTFKRNAMGWYRQAPGKERELVAAISWSGSRTYADSVKGRFTISRDNAKNTVYLQMNSLKPEDTAVYYCAASPGRRRRPYASLIRYDYWGQGTQVTVSS
  polyreactivity (PSR sort gate): high polyreactivity

## QVQLVESGGGLVQAGGSLRLSCAASGFTFKRYAMGWYRQAPGKERELVAAISWSGGSTYYADSVKGRFTISRDNAKNTVYLQMNSLKPEDTAVYYCAADGGSTEEYYYWGQGTQVTVST
  polyreactivity (PSR sort gate): high polyreactivity

## QVQLVESGGGLVQAGGSLRLSCAASGFTFKTYVMGWYRQAPGKERELVAAISRRGGSTHYADSVKGRFTISRDNAKNTVYLQMNSLKPEDTAVYYCARRWYSTWWYGYWGQGTQVTVSS
  polyreactivity (PSR sort gate): high polyreactivity

## QVQLVESGGGLVQAGGSLRLSCAASGFTFKWYTMGWYRQAPGKERELVAGISRRGGSTYYADSVKGRFTISRDNAKNTVYLQMNSLKPEDTAVYYCAARYTWRRAGYYYWGQGTQVTVSS
  polyreactivity (PSR sort gate): high polyreactivity

## QVQLVESGGGLVQAGGSLRLSCAASGFTFKYNVMGWYRQAPGKERELVSAISKRGGNTYYADSVKGRFTISRDIAKNTVYLQMNSLKPVDTAVYYCAADPTSPETSGQGYDYWGQGTQVTVSS
  polyreactivity (PSR sort gate): high polyreactivity
